The supplement of paper PMC10567573

B1: CHIT1 (parent)
chain: CSWKGATKQRIQDQKVPYIFRDNQ
B2: SMARCE1 (parent)
chain: YHNSPAYLAYINAKSRAEAALEEE

Variants of: B1
Assay: protein stability index of a GFP-peptide fusion (GPS, HEK-293T) (PSI 1-6); higher = more stable
Details: c terminus: a fixed tail appended
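Further: lentivirally expressed fusions sorted by FACS into six bins by GFP to DsRed ratio, PSI derived from sequencing read proportions per bin multiplied by bin number.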

Protein stability index, by site and new letter:
W3: E 4.03; K 3.63; S 3.14; I 2.95; Q 3.6; V 3.46; F 2.78; T 3.23; R 3.71; A 2.78; Y 3.04; D 3.73; G 3.19; H 3.06; N 2.93; C 2.06; M 2.69; L 2.71
S2: N 2.53; C 2.06; D 3.06; P 3.02; G 2.07; H 2.42; F 3.22; K 2.01; R 2; A 2.39; M 2.43; I 1.74; E 3.25; Q 1.93; L 2.18; W 2.69; Y 1.49; V 1.85; T 2.17
K4: C 2.36; A 1.94
C1: S 3.58; Y 1.96; V 2.91; W 2.26; G 3.47; K 3.36; L 2.74; Q 2.81; H 3.08; T 2.79; P 2.86; I 2.62; N 2.88; A 3.17; D 3.26; R 2.86; E 3.13; F 1.75; M 2.89

Variants of: B2
Assay: as above
Details: c terminus: a fixed tail appended

Protein stability index of substitutions, site by site:
R16: M 1.81; G 1.74; Q 2.17; K 2.4; E 2.33; I 2.2; S 2.43; T 2.55; Y 2.82; F 1.77; V 2.99; N 1.35; C 2.72
K14: A 1.79; C 2.14; N 2.57; H 2.16; L 1.9; S 1.51; D 1.16; E 2.03; G 2.89; Y 2.63; W 1.62
Y7: V 2.91; Q 2.77; I 2.47; F 2.64; A 2.66; L 2.28; C 2.26; E 3.06; H 2.78; W 2.31
I11: Q 2.85; G 1.87; S 2.99; F 2.67; K 2.59; D 3.19; E 2.64; M 2.35; H 2.46; C 1.66; N 2.59; L 2.24
L8: W 2.04; N 3.65; C 3.05; F 2.93; Y 2.5; V 2.49; R 2.47; P 1.81
Y10: F 2.32; C 2.25; V 2.41; L 2; P 2.11; M 2.3; D 2.37; S 2.56; R 3.34; N 2.05; I 3; E 2.94
L21: H 2.77; F 3.43; G 2.15; Q 2.07; W 2.94; S 1.95; A 2.26; T 1.59; R 2.1; P 3.6
E18: M 2.11; Q 1.51; C 2.46; A 2.58; H 2.33; G 2.31; P 1.88; D 2.4; R 1.97
A6: Y 2.23; Q 2.11; V 2.02; L 1.81; T 1.78; S 2.43; M 2.07; W 2.21; N 1.81; R 2.14; C 1.77
A17: D 1.93; C 2.1; N 2.67; I 1.93; P 2.45; V 2.19; H 2.22; W 2.17; G 3.02; S 2.06; T 2.02; F 2.24; R 1.68
